B1: NcLPMO9C (Neurospora crassa OR74A) (protein)
chain: HTIFQKVSVNGADQGQLKGIRAPANNNPVTDVMSSDIICNAVTMKDSNVLTVPAGAKVGHFWGHEIGGAAGPNDADNPIAASHKGPIMVYLAKVDNAATTGTSGLKWFKVAEAGLSNGKWAVDDLIANNGWSYFDMPTCIAPGQYLMRAELIALHNAGSQAGAQFYIGCAQINVTGGGSASPSNTVSFPGAYSASDPGILINIYGGSGKTDNGGKPYQIPGPALFTCPAGGSGGSSPAPATTASTPKPTSASAPKPVSTTASTPKPTNGSGSGTGAAHSTKCGGSKPAATTKASNPQPTNGGNSAVRAAALYGQCGGKGWTGPTSCASGTCKFSNDWYSQCLP
notes: wild type with 79-residue linker and CBM1, C4-oxidizing; Pichia pastoris X33, N-glycosylated, Ni-NTA, copper-saturated
B2: AoLPMO9A (Aspergillus oryzae RIB40) (protein)
chain: HGYVSGVVIDGQYYGGYLVDKYAYSDNAPDTIGWTTSATDLGFVDGTGYQSPDIICHKDGAPGALTAEVAAGGKIELQWTEWPESHHGPVLNYLAPCGGECSAVDKTTLEFFKIEAKGLIDGTTPPGQWATDDLISNNNSYTVTIPTSIQEGNYVLRHEIIGLHSAGQKDGAQNYPQCINIKVTGGGDATPAGTAGEALYKDTDAGILFDIYSDLSGGYPIPGPEVFSA
notes: wild type, C1/C4-oxidizing, no CBM1; Pichia pastoris X33, N-glycosylated, Ni-NTA, copper-saturated
B3: AoLPMO9B (Aspergillus oryzae RIB40) (protein)
chain: HGHVSNIVINGVYYEGFDINSFPYMGESAPTVAAWTTPNTGNGPLAPDDYSSPDIICHQNATAGKGYVEVNAGDRISLQWTPWPESHHGPVVDYLARCEPNCASVDKTSLEFFKIDGVGIVDGSSVPGVWGDDQLIQNNNTWLVEIPKSIAPGYYVLRHELIALHSAGTEGGAQNYPSCFNLKVNGEGTDKPAGVVGTELYTPTGDGIIFNIYQTVSEYPVPGPTLYSGAATGVTQAASTVTSTGTALTVGAAATTPASGSGASSSAAPSSSAAATPSSSAAPSSSAAARR
notes: as for B2

Columns and labels:
[1] = target: T1, NcLPMO9C∆CBM (Neurospora crassa, UniProt Q7SHI8); test: peroxidase assay, absorbance at […] nm (coerulignone), Michaelis-Menten fit; format: biochemical; conditions: 5 mM H2O2 co-substrate; copper-saturated enzyme 1 µM; 100 mM sodium phosphate pH 6.0; 37 °C; read-out: 2,6-DMP / Km
T1 construct: gene gh61-3; Pichia pastoris X33, copper-saturated

[2] = substrate: COc1cccc(OC)c1O; test: purified protein; format: biochemical, Neurospora crassa; conditions: 5 mM H2O2 co-substrate, copper-saturated enzyme 1 µM, 100 mM sodium phosphate pH 6.0, 37 °C
[3] = substrate: COc1cccc(OC)c1O; test: purified protein; format: biochemical, Aspergillus oryzae; conditions: 5 mM H2O2 co-substrate, copper-saturated enzyme 1 µM, 100 mM sodium phosphate pH 6.0, 37 °C

Molecule | Km [1] [mM] | Km [2] [mM] | kcat [2] [s⁻¹] | Km [3] [mM] | kcat [3] [s⁻¹]
COc1cccc(OC)c1O [2,6-DMP] | 1.28 ± 0.12 | – | – | – | –
B1 | – | 0.94 ± 0.09 | 0.58 ± 0.02 | – | –
B2 | – | – | – | 1.76 ± 0.31 | 1.48 ± 0.09
B3 | – | – | – | 1.55 ± 0.14 | 1.33 ± 0.04

Source: PMC11641334, “The Effect of CBM1 and Linker on the Oxidase, Peroxidase and Monooxygenase Activities of AA9 LPMOs: Insight into Their Correlation with the Nature of Reductants and Crystallinity of Celluloses” (International Journal of Molecular Sciences, 2024)
